What is called Kd is the constant that tells how readily two partners part at equilibrium. In general, Ki refers to a measure of affinity in units of concentration, obtained from inhibition or displacement.

Residue numbers refer to the chain shown, from its start. Entries after “also recorded” stand apart in the source; their conditions may differ. Bridge positions count the residues as written; N and C are the ends. Ends that are not written are not given here. Peptide text beside a SMILES is read from it.

The values below come from paper PMC1525162 (BMC Pharmacology, 2006).

One experiment has as its system CGRP receptor. Conditions: cited from earlier work. From the text:
Briefly, this 37 amino acid neuropeptide can be divided into two distinct domains based upon its binding and agonistic properties for the receptor. […] Specifically, loss of the disulfide bridge connecting amino acids 2 and 7 negates all biological activity of the endogenous neuropeptide.

Experiment [1] relates to wild type and L24A, L34A, L24A,L34A CLR-RAMP1 (HEK293T-RAMP1 cells). Put plainly: cAMP generation, wild type and leucine mutant CLRs compared.
For experiment [2], the target named is wild type CLR-RAMP1 (transiently transfected HEK293T-RAMP1 cells) (Homo sapiens, UniProt O60894+Q16602). The experiment can be described thus: cAMP generation, wild type CLR. The experiment is classed as cell-based.
Experiment [3] deals with wild type CLR-RAMP1 heterodimer (HEK293T-RAMP1 membranes) (Homo sapiens, UniProt O60894+Q16602). Put plainly: Competition radioligand binding, wild type CLR. Conditions: compared to Ki of CGRP. On the procedure: A crude cell membrane preparation was prepared as previously described. Briefly, HEK293T-RAMP1 membranes were prepared by scraping and transferring cells to a 50 mL conical tube using cold HBSS followed with two washings by centrifugation at 1000 × g using cold HBSS. The intact cell pellet was resuspended in 10 mL of 0.25 M sucrose containing a protease inhibitor cocktail consisting of 10μg/mL benzamidine, 10μg/mL leupeptin, and 20μg/mL phenylmethysulfonylfluoride. The cells were disrupted by freezing followed by Dounce homogenization of the thawed suspension using 20 strokes from a loose fitting (B) pestle. This mixture was then centrifuged at 1260 × g for 5 min at 4°C. Buffer A (20 mM HEPES, pH 7.5, 1.4 mM EGTA, 12.5 mM MgCl2, 10μg/mL benzamidine, 10μg/mL leupeptin, and 20μg/mL phenylmethysulfonylfluoride) was added to the supernatant and centrifuged again at 30,000 × g for 15 min at 4°C. The resultant pellet was kept, resuspended in buffer A then centrifuged once more at 30,000 × g for 15 min at 4°C. […] Protein concentrations were measured using the method of Bradford.
The radioligand binding protocol used for this study was performed as previously described. […] Amounts of total and non-specific radiolabel bound to cell membranes were calculated from radioactive counts remaining on the glass fiber filters.

The test system of experiment [4] is L24A, L34A and L24A,L34A CLR-RAMP1 heterodimers versus wild type. Put plainly: Competition/saturation binding, leucine mutant CLRs compared with wild type. Set-up: species or system human. As to conditions: L34A, L24A,L34A vs wild type CLR. The protocol:
A crude cell membrane preparation was prepared as previously described. Briefly, HEK293T-RAMP1 membranes were prepared by scraping and transferring cells to a 50 mL conical tube using cold HBSS followed with two washings by centrifugation at 1000 × g using cold HBSS. The intact cell pellet was resuspended in 10 mL of 0.25 M sucrose containing a protease inhibitor cocktail consisting of 10μg/mL benzamidine, 10μg/mL leupeptin, and 20μg/mL phenylmethysulfonylfluoride. The cells were disrupted by freezing followed by Dounce homogenization of the thawed suspension using 20 strokes from a loose fitting (B) pestle. This mixture was then centrifuged at 1260 × g for 5 min at 4°C. Buffer A (20 mM HEPES, pH 7.5, 1.4 mM EGTA, 12.5 mM MgCl2, 10μg/mL benzamidine, 10μg/mL leupeptin, and 20μg/mL phenylmethysulfonylfluoride) was added to the supernatant and centrifuged again at 30,000 × g for 15 min at 4°C. The resultant pellet was kept, resuspended in buffer A then centrifuged once more at 30,000 × g for 15 min at 4°C. The final crude membrane pellet was resuspended in buffer A containing 10% glycerol and stored in aliquots at -70°C until used for radioligand binding. Protein concentrations were measured using the method of Bradford.
The radioligand binding protocol used for this study was performed as previously described. […] Binding was stopped by filtering the membranes though Whatman GF/C glass fiber filters, followed by 5 – 5 mL washes with cold buffer B (20 mM HEPES, pH 7.5, 1.4 mM EGTA, 12.5 mM MgCl2) to remove any unbound drug. Amounts of total and non-specific radiolabel bound to cell membranes were calculated from radioactive counts remaining on the glass fiber filters.

Experiment [5] has as its target CLR-RAMP1 heterodimer with the L34A CLR mutant (UniProt Q16602). The experiment can be described thus: radioligand binding; saturation binding: increasing [125I-Tyr]CGRP(8–37) on crude membranes of transiently transfected HEK293T-RAMP1 cells, 37°C, buffer A (20 mM HEPES pH 7.5, […] EGTA, 12.5 mM MgCl2, protease inhibitors) plus 0.1% BSA, 1 μM CGRP for non-specific binding, filtration on GF/C filters.

Experiment [6] addresses CLR-RAMP1 heterodimer, wild type calcitonin-like receptor (CLR) with receptor-activity-modifying protein-1 (RAMP1) (UniProt Q16602). The experiment is described as above.
Experiment [7] concerns the target CLR-RAMP1 heterodimer with the L24A,L34A CLR double mutant (UniProt Q16602). Described as above.
The target of experiment [8] is CLR-RAMP1 heterodimer with the L24A CLR mutant (UniProt Q16602). The experiment is described as above.
For experiment [9], the target named is T1, CLR-RAMP1 heterodimer, wild type calcitonin-like receptor (CLR) with receptor-activity-modifying protein-1 (RAMP1), Q16602.
T1 chain 1: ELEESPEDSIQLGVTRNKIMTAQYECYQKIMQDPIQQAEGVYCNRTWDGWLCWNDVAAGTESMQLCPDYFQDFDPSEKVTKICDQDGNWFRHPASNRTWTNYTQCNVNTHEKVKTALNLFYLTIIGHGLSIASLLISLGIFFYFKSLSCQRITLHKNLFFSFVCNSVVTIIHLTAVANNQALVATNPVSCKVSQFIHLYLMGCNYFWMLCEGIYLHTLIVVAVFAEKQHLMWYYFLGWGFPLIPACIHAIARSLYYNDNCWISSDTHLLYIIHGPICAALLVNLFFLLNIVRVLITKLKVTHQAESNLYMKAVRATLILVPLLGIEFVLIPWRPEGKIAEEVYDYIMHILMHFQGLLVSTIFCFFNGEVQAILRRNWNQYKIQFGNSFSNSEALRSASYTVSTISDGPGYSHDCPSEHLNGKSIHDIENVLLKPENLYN
T1 chain 2: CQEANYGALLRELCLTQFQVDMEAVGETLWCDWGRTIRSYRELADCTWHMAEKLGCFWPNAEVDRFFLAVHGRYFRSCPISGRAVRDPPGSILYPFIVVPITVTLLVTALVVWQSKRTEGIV
The experiment can be described thus: radioligand binding; competition: increasing unlabeled peptide against specific [125I-Tyr]CGRP(8–37) binding on crude membranes of transiently transfected HEK293T-RAMP1 cells, same buffer as the saturation binding; Ki from IC50 by the method of Cheng and Prusoff.

Experiment [10] deals with T2, CLR-RAMP1 heterodimer with the L34A CLR mutant, Q16602.
T2 chain 1: T1 chain 1 with L12A
T2 chain 2: T1 chain 2
The experiment is described as above.

Experiment [11] addresses T3, CLR-RAMP1 heterodimer with the L24A CLR mutant, Q16602.
T3 chain 1: T1 chain 1 with L2A
T3 chain 2: T1 chain 2
The description is as above.

The target of experiment [12] is T4, CLR-RAMP1 heterodimer with the L24A,L34A CLR double mutant, Q16602.
T4 chain 1: T1 chain 1 with L2A, L12A
T4 chain 2: T1 chain 2
The description is as above.

Experiment [13] deals with T1, CLR-RAMP1 heterodimer, wild type ….
In experiment [14] the target is T2, CLR-RAMP1 heterodimer with the L34A CLR ….
For experiment [15], the target named is T3, CLR-RAMP1 heterodimer with the L24A CLR ….
Experiment [16] addresses T4, CLR-RAMP1 heterodimer with the ….

For the molecule “des-F37-CGRP: CGRP with deletion of the C-terminal phenylalanine at position 37 (ACDTATCVTHRLAGLLSRSGGVVKNNFVPTNVGSKA-NH2; disulfide 2-7 (inferred); ends not checked; UniProt P06881 83-119, looked up, variant F37*)”, in the experiment on CGRP receptor (not due to disruption of ligand structure), the “affinity for native receptor compared with endogenous neuropeptide” value is “affinity loss”.
As for CGRP(8–37), in the experiment with CGRP receptor (N-terminal truncated peptide), the “CGRP receptor affinity and activity” value was “effective CGRP receptor antagonist having a high affinity for the receptor but devoid of any biological activity in itself”. Besides, the “antagonism of cAMP response to CGRP(1–36)” value in experiment [1] (1μM CGRP(8–37) preincubated 30 min before 10μM CGRP(1–36), wild type and leucine CLR mutants) is “abolished the activity of 10μM CGRP(1–36); also recorded: blocked to basal levels”.
Turning to `CC(C)C[C@H](NC(=O)CNC(=O)[C@H](C)NC(=O)[C@H](CC(C)C)NC(=O)[C@H](CCCNC(=N)N)NC(=O)[C@H](Cc1c[nH]cn1)NC(=O)[C@@H](NC(=O)[C@@H](NC(=O)[C@@H]1CSSC[C@H](NC(=O)[C@H](C)N)C(=O)N[C@@H](CC(=O)O)C(=O)N[C@@H]([C@@H](C)O)C(=O)N[C@@H](C)C(=O)N[C@@H]([C@@H](C)O)C(=O)N1)C(C)C)[C@@H](C)O)C(=O)N[C@@H](CC(C)C)C(=O)N[C@@H](CO)C(=O)N[C@@H](CCCNC(=N)N)C(=O)N[C@@H](CO)C(=O)O` [CGRP(1–19)] (H-ACDTATCVTHRLAGLLSRS-OH; disulfide 2-7 (inferred); N-terminus assumed), the “maximal cAMP response” value in experiment [2] (CGRP(1–36) compared with CGRP, CGRP(1–19) compared with CGRP(1–36) and CGRP) was “appreciably less”. Also, the “cAMP potency compared with CGRP, wild type” value in experiment [2] (compared to CGRP) is listed as “considerably less; also recorded: significantly less”. In addition, the “affinity for wild type CLR compared with CGRP” value in [3] was “significant loss of CGRP(1–19) affinity”. For the same molecule, the “affinity at leucine mutants compared with wild type” value in experiment [4] was “analogous to values calculated for all leucine CLR mutations”. Moreover, in experiment [1] (L24A, L34A, L24A,L34A vs wild type CLR), the “cAMP potency at leucine mutants compared with wild type” value is given as “no different; also recorded: no significant potency differences”.
Take [125I-Tyr]CGRP(8–37) (peptide): the Kd in experiment [5] came to 9 nM; in experiment [6], 0.9 nM; in experiment [7], 9 nM; in [8], 9 nM.
Regarding ACDTATCVTHRLAGLLSRS (modifications not checked) [CGRP(1–19)], the Ki in experiment [9], in experiment [10], in experiment [11] and in [12] was above 10000 nM each time. Also, the EC50 of cAMP generation in transiently transfected HEK293T-RAMP1 cells in [13] was determined as 2100 nM; in [14], 2200 nM; in experiment [15] it was 2400 nM; in experiment [16], 1600 nM.
